The results in this text go back to publication PMC3851687 (2013).

The target in assay [1] is T1, humanized dPHD-HD1 (Pygo PHD F773W in complex with Lgs HD1) (Drosophila, UniProt Q9V9W8 747-804; Q961D9 321-353, F773W).
T1 sequence 1: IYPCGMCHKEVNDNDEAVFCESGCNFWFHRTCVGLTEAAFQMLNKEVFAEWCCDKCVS
T1 sequence 2: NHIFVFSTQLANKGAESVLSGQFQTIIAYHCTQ
Briefly: ITC; linked PHD-HD1 complex (uncleaved linker). For orientation: Isothermal titration calorimetry measures the heat released or taken up as one component is titrated into another.

Assay [2] has as its target T1, humanized dPHD-HD1 (Pygo PHD F773W in …). The assay is described as follows: ITC; linked PHD-HD1 complex (uncleaved).

In general, Kd refers to the equilibrium constant for the complex coming apart.

Consider ARTKQTARKSTGGKA (dimethyl-lysine at K4 (K4me2)) [H3K4me2 15-mer (histone H3 tail peptide dimethylated at lysine 4)], for which the Kd in assay [1] and in assay [2] was 7.5 µM each time.
